In patent CN114685670A (SHANGHAI LYOFIE MEDICAL SCIENCE AND TECH LIMITED COMPANY, dated 2022):

B1: A8抗体 (as tested in Example 6) (antibody, V domains shown)
VH: QVQLQQPGAELVKPGASVKLSCKASGYTFTSYWMHWVRQRPGQGLEWIGMIHPNSGSTNYNGKFKSKATLTVDKSSSTAYMQLSSLTSEDSAVYFCARGGYYGNSLDFWGQGTSLTVSS
VL: DIVMTQSPSSLTVTAREKVTMSCKSSQSLLNSGNQKNYLTWYQQKPGQPPKLLIYWASTRESGVPDRFTGSGSGTDFTLTISSVQAEDLAVYYCQNAYSYPFTFGSGTKLEIK
B2: C18-16-1H1-1A8 (antibody, V domains shown)
VH: B1 VH
VL: DIVMTQSPSSLTVTAREKVTMSCKSSQSLLNSGNQKNYLTWYQQKPGQPPKLLIYWASTRESGVPDRFTGSGSGTDFTLTISSVQAEDLAVYYCQNAYSYPFTFGSGTKLEIKR
notes: also called A8抗体; C18-16-1H1-1A8重组抗体

Experiments:
[1] = target: T1, human CLDN18.2 (human, UniProt P56856-2 1-261); assay: flow cytometry on 18.2-K562 cells, 8-point antibody dilution, Anti-Human IgG FITC detection
T1 construct: whole, on cells; also called hCLDN18.2; Claudin 18.2
T1 sequence (looked up): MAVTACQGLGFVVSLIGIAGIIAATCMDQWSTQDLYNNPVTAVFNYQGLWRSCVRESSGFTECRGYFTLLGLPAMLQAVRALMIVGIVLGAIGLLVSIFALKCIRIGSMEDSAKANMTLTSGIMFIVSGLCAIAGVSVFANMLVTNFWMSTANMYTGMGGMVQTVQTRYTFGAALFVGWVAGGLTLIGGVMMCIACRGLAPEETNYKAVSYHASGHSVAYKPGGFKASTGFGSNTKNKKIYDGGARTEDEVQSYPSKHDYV

[2] = target: T1, human CLDN18.2; assay: flow cytometry, hybridoma supernatant on CHO stable cells

抗体亲和力 (affinity from FACS titration, EC50-like) [1] [µg/mL] | binding result [2] | Binder
0.675 | – | B1
– | binds | B2
